The source of these data is article PMC4946879.

Assay [1] concerns the target HIV-1 Gag CTD-SP1 (residues 281–377 of HIV-1 NL4-3 Gag, P373T) (HIV-1 NL4-3). The experiment in a line: crystal structure; plate crystals of stacked flat hexagonal lattices; 0.1 M Bis-Tris propane, pH 7-8, 0.8-1.0 M LiSO4; sitting drops, 1:2 protein:precipitant; 3.27 Å.
Assay [2] has the same target. The experiment in a line: crystal structure; other crystal hits from screens with commercial and in-house precipitants; mature-like dimer form of the CTD with disordered SP1 tails; not deposited.

“HIV-1 Gag CTD-SP1 (residues 281–377 of HIV-1 NL4-3 Gag, P373T) (domain or fragment)”: the results for the stoichiometry N in assay [1] and in assay [2] were 6 and 2, respectively.
